Measured values taken from US20020065218A1.

Assays:
[1] = biological target: chimeric receptor consisting of the extracellular domain of mouse VEGFR-3 and the cytoplasmic domain of erythropoietin receptor, on Ba/F3 cells (mouse) (UniProt P35917); assay: cell-based or functional assay
[2] = biological target: chimeric receptor consisting of the extracellular domain of mouse VEGFR-2 and the cytoplasmic domain of erythropoietin receptor, on Ba/F3 cells (mouse) (UniProt P35918); assay: cell-based or functional assay
Chain of UniProt P35918 (P35918 20-762, change not shown): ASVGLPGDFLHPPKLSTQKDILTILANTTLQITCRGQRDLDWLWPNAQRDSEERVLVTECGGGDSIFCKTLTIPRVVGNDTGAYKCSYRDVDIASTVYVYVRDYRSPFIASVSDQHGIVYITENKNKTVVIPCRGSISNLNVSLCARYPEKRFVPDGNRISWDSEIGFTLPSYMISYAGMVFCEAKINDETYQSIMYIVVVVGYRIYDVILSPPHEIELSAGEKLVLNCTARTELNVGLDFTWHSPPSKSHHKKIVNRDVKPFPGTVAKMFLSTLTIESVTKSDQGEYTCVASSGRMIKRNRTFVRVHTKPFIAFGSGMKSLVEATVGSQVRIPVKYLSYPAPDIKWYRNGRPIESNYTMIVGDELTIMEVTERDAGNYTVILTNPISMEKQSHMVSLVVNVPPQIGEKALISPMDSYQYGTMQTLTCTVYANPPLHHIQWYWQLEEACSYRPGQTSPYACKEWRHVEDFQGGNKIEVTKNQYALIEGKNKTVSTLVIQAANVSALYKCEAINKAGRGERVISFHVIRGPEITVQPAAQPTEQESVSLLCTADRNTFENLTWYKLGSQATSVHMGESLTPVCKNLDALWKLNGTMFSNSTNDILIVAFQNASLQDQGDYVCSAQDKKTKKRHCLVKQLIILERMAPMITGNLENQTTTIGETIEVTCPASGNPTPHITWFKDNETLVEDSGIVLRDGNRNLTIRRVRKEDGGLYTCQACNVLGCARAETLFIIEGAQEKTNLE

Chain of UniProt P35917 (P35917 25-775, change not shown): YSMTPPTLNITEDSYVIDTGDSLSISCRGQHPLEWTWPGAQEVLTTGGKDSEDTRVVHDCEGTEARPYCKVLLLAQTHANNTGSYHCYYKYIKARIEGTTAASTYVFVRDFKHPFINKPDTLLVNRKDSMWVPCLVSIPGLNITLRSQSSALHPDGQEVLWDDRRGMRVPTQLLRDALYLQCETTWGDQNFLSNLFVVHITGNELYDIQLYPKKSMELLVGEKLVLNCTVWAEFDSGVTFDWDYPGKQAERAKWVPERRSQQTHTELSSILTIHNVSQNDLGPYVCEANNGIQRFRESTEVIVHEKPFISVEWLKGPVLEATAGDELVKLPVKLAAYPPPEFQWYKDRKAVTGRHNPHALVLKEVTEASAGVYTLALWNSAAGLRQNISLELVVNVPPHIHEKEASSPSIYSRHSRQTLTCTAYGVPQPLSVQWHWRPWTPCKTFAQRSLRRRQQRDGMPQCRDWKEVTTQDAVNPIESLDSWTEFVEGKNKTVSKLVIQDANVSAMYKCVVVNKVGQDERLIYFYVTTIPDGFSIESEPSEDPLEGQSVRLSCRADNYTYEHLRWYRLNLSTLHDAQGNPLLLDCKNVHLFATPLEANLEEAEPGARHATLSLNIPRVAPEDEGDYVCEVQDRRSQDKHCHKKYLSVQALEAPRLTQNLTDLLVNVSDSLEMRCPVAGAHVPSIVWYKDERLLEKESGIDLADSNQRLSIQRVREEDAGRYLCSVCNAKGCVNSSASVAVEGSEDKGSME

Substance | concentration producing near-maximal survival of Ba/F3 VEGFR-3-EpoR cells without IL-3 [1] [ng/mL] | concentration producing near-maximal survival of Ba/F3-NYK-EpoR cells without IL-3 [2] [ng/mL]
recombinant VEGF-DΔNΔC (from UniProt O43915 93-201) (ligand) | 500 | 500
recombinant VEGF-CΔNΔC (from UniProt P49767 103-215) (ligand) | 3 | 50
